From article PMC3458034, “Structure and Flexibility of the C-Ring in the Electromotor of Rotary FoF1-ATPase of Pea Chloroplasts” (PLoS ONE, 2012)

Target: the molecule itself
Assay: crystal structure; c-ring from a native preparation in detergent; crystals grown in 100 mM Na-acetate pH 4.5, 50 mM MgCl2, 50 mM NaCl, 10 mM yttrium chloride, 14-24% PEG 550 MME; 3.4 Å

B1: chloroplast ATP synthase subunit-c of the green pea (Pisum sativum), as the c-ring (natural protein, UniProt P08212 1-81, looked up)
chain: MNPLIAAASVIAAGLAVGLASIGPGVGQGTAAGQAVEGIARQPEAEDKIRGTLLLSLAFMEALTIYGLVVALALLFANPFV
notes: ATP synthase (CFoCF1) subunit c of the chloroplast, Pisum sativum; each monomer is printed as an 81-residue hairpin-shaped polypeptide (TM1 residues 4-41, loop 42-45, TM2 46-75); Native preparation, no tags; Homo-tetradecameric ring in the crystal; also called c-subunit; c14; source: purified from thylakoid membranes of P. sativum var; Alaska young leaves (DDM, PEG precipitation, sucrose …)
  stoichiometry N: 14
